{"source": "the nanobody polyreactivity screen of Harvey et al. (2022)", "data": [{"assay": "yeast display, Sf9 membrane polyspecificity reagent, FACS + sequencing; frameworks hold sequencing errors", "in_short": "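Polyreactivity labels are assigned by the sorting gate from which each nanobody was recovered. The gates were low and high (top ~1%), set on anti-HA fluorescence for expression and streptavidin fluorescence for reagent binding. Before sorting, galactose-induced (36–48 hours) yeast display cells were stained for 1 hour at 4 °C with 10% biotinylated, detergent-solubilized Sf9 membrane reagent.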", "values": [{"sequence": "QVQLVESGGGLVQAGGSLRLRCAASGSNFYQNAMGGYRQAPGKETALLATIDVNTVSTSYADSVKGRFTISRDNAKNTVYLQMHSLKPEDTAVYYCAAGPDVGVLGDRDPWKNVKYDYWGQGTQVTASS", "polyreactivity (PSR sort gate)": "low polyreactivity"}, {"sequence": "QVQLVESGGGLVQAGGSLRLRCAASGSTCFLYAMGWYRQAPGKEMELVASISDGSSTNYADSVKGRFTISRDNAKNTVYLQMNSLKPEDTAVYYCDAARWYAHRVDYWGQGTQVTVSS", "polyreactivity (PSR sort gate)": "low polyreactivity"}, {"sequence": "QVQLVESGGGLVQAGGSLRLRCAASGSTFAYYAMGWYRQAPGKDRELVARIRSSGVSTYYADSVKGRFTISRDNPNNTVSLQMNTLKPEDTAGYYCHTAYAGVRYDSWGQGTQVTVSS", "polyreactivity (PSR sort gate)": "low polyreactivity"}, {"sequence": "QVQLVESGGGLVQAGGSLRLRCAASGSTFGPYVMGWYRQAPGKVRELVAVISGGSTDYADSVKGRFTISRDNAKNNVYLQINSLKPEDTAVYYCNAEYYFYLSPTVYLYDYWGQGTQVTVSS", "polyreactivity (PSR sort gate)": "high polyreactivity"}, {"sequence": "QVQLVESGGGLVQAGGSLRLRCAASGSTFSRYAMGWYRQAAGKERELVAAISWSGGSTYYADSVKGRFTISRDNAKNTVYLQMNSLKPEYTAVYYCAAYTYSFRANHDFWGQGTQVTVSS", "polyreactivity (PSR sort gate)": "high polyreactivity"}, {"sequence": "QVQLVESGGGLVQAGGSLRLRCAASGSTFWSYAMGWYRQAPGKERELVATITRAGTTNYADSVKGPFTISRDNAKNTVYLQMNSLKPEDTAVYYCAKRKFRWPYQGSYSYIPFGYWGQGTQVTVSS", "polyreactivity (PSR sort gate)": "high polyreactivity"}, {"sequence": "QVQLVESGGGLVQAGGSLRLRCAASGSTFYWNAMGWYRQAPGKERELVATITYSGGSTYYADSVKGRFTISRDNAKNTVYLQMNSLKPEDTAVYYCATGGLTWHYTYRGYYWGQGTQVTVSS", "polyreactivity (PSR sort gate)": "low polyreactivity"}, {"sequence": "QVQLVESGGGLVQAGGSLRLRCAASGTTTSNNSMGWYRQAPGKERELVADMSTNGDSTSYADSVKGRYTISRDNAKNTVYLQMNSLKPVDTAVYYCAASTYVTYWEYDYWGQGTQVTVSS", "polyreactivity (PSR sort gate)": "low polyreactivity"}, {"sequence": "QVQLVESGGGLVQAGGSLRLRCAASGWYRQAAGKERELVAAITYSGGSTYYADSVKGRFTISRDNAKKTVYLQMNSLKPEDTAVYYCAAQPRVDYEFPYRYGYWGLGTQVTVSS", "polyreactivity (PSR sort gate)": "low polyreactivity"}, {"sequence": "QVQLVESGGGLVQAGGSLRLRCAPSGFIFNTMGWYRQAPGKERDLVATISWSDGSTYYADSVKGRFTISRDNAKNTVYLHMNSLKTEDTADYYCAATTDALVGRPRYDYWGQGTQVTVSS", "polyreactivity (PSR sort gate)": "low polyreactivity"}, {"sequence": "QVQLVESGGGLVQAGGSLRLRGAASGSIFKGNAMGWYRQAPGKERELVAAITRSVARTYYADSVKVRFTISRDNAKNTVYLQMNSLKPEDTAVYDCAADWYQWGGRYYAPRYYYWGQGTQVTVSS", "polyreactivity (PSR sort gate)": "high polyreactivity"}, {"sequence": "QVQLVESGGGLVQAGGSLRLRSAASGSIYNQNAMGWYRQAHGNRELVAAITNGVSTDYADSVKGRFTISRDNAKNTVYLKLNSLKPEDTAVYYCNAGNYQYPSFEYDYWGLGTQVTVSS", "polyreactivity (PSR sort gate)": "low polyreactivity"}, {"sequence": "QVQLVESGGGLVQAGGSLRLRWAASGFIFGYYPMGWYRPAPGKERELVAAINSSGGSTYYADSVKGRFTISRDNAKNTVYLQMNSLKPADTAVYYCAARAYQRGIYWGQGTQVTLSS", "polyreactivity (PSR sort gate)": "high polyreactivity"}, {"sequence": "QVQLVESGGGLVQAGGSLRLSCAAAGFTFYIYAMGWYRKAPGKERELVAAITTTTGSTYYADSVKGRFTISRDNAKNTVYLQMNSLKPEDTAVYYCAAEGHYYYFGYYYWGQGTQVTVSS", "polyreactivity (PSR sort gate)": "low polyreactivity"}, {"sequence": "QVQLVESGGGLVQAGGSLRLSCAAAGSIFSGYAMGWSRQAPGKERELVAAISGSGGSTFYADSVKGRFTISRDNAKKTVYLQMNSLKPEDTAVYYCAARRIAPYARYDYWGQGTQVTVSS", "polyreactivity (PSR sort gate)": "low polyreactivity"}, {"sequence": "QVQLVESGGGLVQAGGSLRLSCAAAGSTFHANAMGWYRPAPGKERELVAAISRSGGSTNYADSVKGRFTISRDIAKNTVYLQMNSLKPEDTAVYYCAVDYRYYQVYYWGQGTQVTVSS", "polyreactivity (PSR sort gate)": "high polyreactivity"}, {"sequence": "QVQLVESGGGLVQAGGSLRLSCAACGRISTAYAMGGYRQAPGTERELVAAISSGTSTTYADSVKGRFTISRDNAKNTVYLQMNSLKPEDTAVYYCAAPGRYGEYDYWGQGTQVTVSS", "polyreactivity (PSR sort gate)": "low polyreactivity"}]}]}
